Measurements taken from patent publication US20190359937A1 (INNOVATIVE TARGETING SOLUTIONS, published 2019).

How the values were obtained:
[1] = molecular target: T1, HER2 (as used for the affinity measurement) (UniProt P04626 23-652, limits assumed); assay: affinity of the antibody for HER2; estimated to be several hundred nM, method not stated for this antibody
[2] = molecular target: T1, HER2 (as used for the affinity …); assay: Biacore, antibody against HER2; format not stated

Row | Kd [1] [nM] | Kd [2] [nM] | Binder
1 | > 200 |  | anti-HER2 antibody ITS001-V928 (antibody, V domains shown, The KD is told of the antibody before it was made into the IgG-TNFR1 receptor; also called ITS001-V928-based antibody; antibody of C644) VH: QVQLVQSGAEVKKPGASVKVSCKASGYTFTSYGISWVRQAPGQGLEWMGWISAYNGNTNYAQKLQGRVTMTTDTSTSTAYMELRSLRSDDTAVYYCARELAYDAFDIWGQGTMVTVSS VL: not shown
2 |  | 107 | anti-HER2 antibody ITS001-V737 (antibody, V domains shown, The KD by Biacore is told of the antibody before it was made into the IgG-TNFR1 receptor; also called ITS001-V737-based antibody; antibody of C645) VH: QVQLVQSGAEVKKPGASVKVSCKASGYTFTSYGISWVRQAPGQGLEWMGWISAYNGNTNYAQKLQGRVTMTTDTSTSTAYMELRSLRSDDTAVYYCARELAYDAFDIWGQGTMVTVSS VL: DIQMTQSPSSLSASVGDRVTITCRASQSISSYLNWYQQKPGKAPKLLIYAASSQAGLSLQSGVPSRFSGSGSGTDFTLTISSLQPEDFATYYCQQSYSTPLTFGGGTKVEIKR
